Assay results as given in paper PMC2944808 (2010).

Molecular target: T1, Chordin VWC2 (UniProt Q9H2X0)
T1 chain: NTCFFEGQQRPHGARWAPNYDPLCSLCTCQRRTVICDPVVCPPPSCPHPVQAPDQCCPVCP
Assay: SPR

- Kd: 5 nM
B1: Crossveinless-2 (protein)
chain: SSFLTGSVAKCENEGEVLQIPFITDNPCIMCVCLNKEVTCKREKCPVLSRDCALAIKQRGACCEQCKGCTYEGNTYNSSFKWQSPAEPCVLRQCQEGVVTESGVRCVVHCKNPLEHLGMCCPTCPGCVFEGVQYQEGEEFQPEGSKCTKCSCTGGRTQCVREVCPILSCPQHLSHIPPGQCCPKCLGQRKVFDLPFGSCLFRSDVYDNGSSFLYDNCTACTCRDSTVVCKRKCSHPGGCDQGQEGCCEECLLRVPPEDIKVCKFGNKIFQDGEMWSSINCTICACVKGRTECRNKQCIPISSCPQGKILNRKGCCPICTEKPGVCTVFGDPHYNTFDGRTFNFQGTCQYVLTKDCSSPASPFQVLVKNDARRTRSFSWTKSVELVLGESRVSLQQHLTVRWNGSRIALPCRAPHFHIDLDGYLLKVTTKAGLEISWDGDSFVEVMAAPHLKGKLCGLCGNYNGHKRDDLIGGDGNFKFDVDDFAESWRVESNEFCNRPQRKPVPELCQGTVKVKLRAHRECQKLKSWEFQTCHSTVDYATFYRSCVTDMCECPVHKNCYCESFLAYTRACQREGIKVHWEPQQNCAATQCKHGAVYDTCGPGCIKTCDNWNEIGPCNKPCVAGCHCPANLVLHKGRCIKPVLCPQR
